Experimental data reported in article PMC9227038, “Characterization of Four Medically Important Toxins from Centruroides huichol Scorpion Venom and Its Neutralization by a Single Recombinant Antibody Fragment” (Toxins, 2022).

Columns and labels:
Test in all cases: SPR
Settings in all cases: both partners purified
Chui2 toxin [1] = biological target: T1, Chui2 toxin (Centruroides huichol, UniProt C0HM15)
T1 construct: also called FII.9-2

Chui3 toxin [2] = biological target: T2, Chui3 toxin (Centruroides huichol, UniProt C0HM16)
T2 construct: also called Chui3/Cn3; FII.9-3
T2 sequence (C0HM16 whole entry): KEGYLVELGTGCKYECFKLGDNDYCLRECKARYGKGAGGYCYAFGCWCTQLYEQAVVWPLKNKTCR

Chui4 toxin [3] = biological target: T3, Chui4 toxin (Centruroides huichol, UniProt C0HM17)
T3 construct: also called FII.10-1
T3 sequence (C0HM17 whole entry): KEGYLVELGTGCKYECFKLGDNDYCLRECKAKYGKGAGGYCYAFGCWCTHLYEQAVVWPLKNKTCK

Chui5 toxin [4] = biological target: T4, Chui5 toxin (Centruroides huichol, UniProt C0HM18)
T4 construct: also called FII.12-1
T4 sequence (C0HM18 whole entry): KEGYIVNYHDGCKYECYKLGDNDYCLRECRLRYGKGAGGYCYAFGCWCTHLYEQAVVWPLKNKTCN

Chui2 toxin [5] = biological target: T1, Chui2 toxin; remark: listed apart in the source
Chui3 toxin [6] = biological target: T2, Chui3 toxin; remark: listed apart in the source
Chui4 toxin [7] = biological target: T3, Chui4 toxin; remark: listed apart in the source
Chui5 toxin [8] = biological target: T4, Chui5 toxin; remark: listed apart in the source
Chui5 toxin [9] = biological target: T4, Chui5 toxin; remark: listed apart in the source
Chui5 toxin [10] = biological target: T4, Chui5 toxin; remark: listed apart in the source

T1 sequence (C0HM15 whole entry): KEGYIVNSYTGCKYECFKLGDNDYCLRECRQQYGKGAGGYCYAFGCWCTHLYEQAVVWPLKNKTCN

B1: scFv LR (scFv, V domains shown)
VH: EVQLVESGGGLVQPGGSLRLSCTGSGFTFDNYAMHWLRQVPGEGLEWVSGISRSSGDIDYADSVKGRFTISRDDAKKTLSLQMNSLRAEDTAVYYCARGGFGSFDTWGQGTMVTVSS
VL: EIVLTQSPATLSVSPGERATLSCRASQSVRSYLAWYQQKPGQAPRLLFSDASNRATGIPARFTGSGSGTDFTLTISSLEPEDFAIYYCQQYRYSPRTFGQGTKVEIK
binding result (Chui2 toxin [1]): binds
binding result (Chui3 toxin [2]): binds
binding result (Chui4 toxin [3]): binds
binding result (Chui5 toxin [4]): no binding (tested: 25 nM)

B2: scFv 10FG2 (scFv, V domains shown)
VH: QVNLRESGGGLVQPGGSLRLSCAASGFSFGSYGMHWVRQAPGKGLEWVAVISYGGGSKYYADSVKGRFTISRDNSKNTLYLQMNSLRAEDTAVYYCAKDARDCLLCSDWTFDLWGRGTLVTVSS
VL: NFMLTQPHSASGTPGQRVTISCSGSSSNIGSNTVNWYRHLPGSAPELLIGSHNQRPSGVPDRFSGSKSGTSASLAISGLQSEDEADYYCAAWDDSTLGYVFGTGTKLTVL
notes: source: E. coli TG1 (pSyn1), purified (Ni2+-NTA, Superdex 75 SEC)
Kd (Chui2 toxin [5]): 1.1 nM
TR (residence time) (Chui2 toxin [5]): 60.4 min
koff (Chui2 toxin [5]): 0.00028 s⁻¹
kon (Chui2 toxin [5]): 280000 M⁻¹ s⁻¹
Kd (Chui3 toxin [6]): 1.8 nM
TR (residence time) (Chui3 toxin [6]): 53.1 min
koff (Chui3 toxin [6]): 0.00031 s⁻¹
kon (Chui3 toxin [6]): 180000 M⁻¹ s⁻¹
Kd (Chui4 toxin [7]): 0.3 nM
TR (residence time) (Chui4 toxin [7]): 242 min
koff (Chui4 toxin [7]): 7e-05 s⁻¹
kon (Chui4 toxin [7]): 210000 M⁻¹ s⁻¹

B3: scFv HV (scFv, V domains shown)
VH: QVNLRESGGGLVQPGGSLRLSCAASGFSYGSYGMHWVRQAPGKGLEWVAVISYGGGSKYYADSVQGRFTISRDNSKNTLYLQMNSLRAEDTAVYYCAKDARDCLGCSDWTFDLWGRGTLVTVSS
VL: NFMLTQPHSASGTPEQRVTISCSGSSSNIGSNTVNWYRHLPGSAPELLIGSHNQRPSGVPDRFSGSKSGTSASLAISGLQSEDEADYYCAAWDDSTLGYVFGTGTKLTVL
notes: also called HV variant
Kd (Chui2 toxin [5]): 3.1 nM
TR (residence time) (Chui2 toxin [5]): 34.2 min
koff (Chui2 toxin [5]): 0.00049 s⁻¹
kon (Chui2 toxin [5]): 160000 M⁻¹ s⁻¹
Kd (Chui3 toxin [6]): 3.8 nM
TR (residence time) (Chui3 toxin [6]): 48.8 min
koff (Chui3 toxin [6]): 0.00034 s⁻¹
kon (Chui3 toxin [6]): 90000 M⁻¹ s⁻¹
Kd (Chui4 toxin [7]): 0.9 nM
TR (residence time) (Chui4 toxin [7]): 105 min
koff (Chui4 toxin [7]): 0.00016 s⁻¹
kon (Chui4 toxin [7]): 180000 M⁻¹ s⁻¹
Kd (Chui5 toxin [8]): 6.9 nM
TR (residence time) (Chui5 toxin [8]): 15.5 min
koff (Chui5 toxin [8]): 0.00108 s⁻¹
kon (Chui5 toxin [8]): 160000 M⁻¹ s⁻¹
dH (Chui5 toxin [9]): -1.6 kcal/mol

B4: scFv 9a (scFv, V domains shown)
VH: QVNLRESGGGLVQPGGSLRLSCAASGFSFGSYGMHWVRQAPGKGLEWVAVISYGGGSKYYADSVKGRFTISRDNSKNTLYLQMNSLRAEDTAVYYCAKDARDCLQCSDWTFDLWGRGTLVTVSS
VL: NFMLTQPHSASGTPGQRVTISCSGSSSNIGSNTVNWYRHLPGSAPELLIGSHNQRPSGVPDRFSGSKSGTSASLAISGLQSEDEADYYCAAWDDSTLGYVFGTGTKLTVL
notes: also called variant 9a; clone 9a
Kd (Chui5 toxin [10]): 8.2 nM
koff (Chui5 toxin [10]): 0.00119 s⁻¹
kon (Chui5 toxin [10]): 150000 M⁻¹ s⁻¹

B5: scFv B15a (scFv, V domains shown)
VH: QVNLRESGGGLVQPGGSLRLSCAASGFSFGSYGMHWVRQAPGKGLEWVAVISYGGGSKYYADSVQGRFTISRDNSKNTLYLQMNSLRAEDTAVYYCAKDARDCLQCSDWTFDLWGRGTLVTVSS
VL: NFMLTQPHSASGTPGQRVTISCSGSSSNIGSNTVNWYRHLPGSAPELLIGSHNQRPSGVPDRFSGSKSGTSASLAISGLQSEDEADYYCAAWDDSTLGYVFGTGTKLTVL
notes: also called B15a variant; source: E. coli TG1 (pSyn1), purified (Ni2+-NTA, Superdex 75 SEC)
Kd (Chui5 toxin [10]): 7.3 nM
koff (Chui5 toxin [10]): 0.00097 s⁻¹
kon (Chui5 toxin [10]): 130000 M⁻¹ s⁻¹
dH (Chui5 toxin [9]): -2.6 kcal/mol
